Results from patent US20260274955A1 (JANUX THERAPEUTICS, published 2026).

B1: Phage-58 (peptide)
peptide: YCEGHLPEYMFKCL
B2: Phage-94 (peptide)
peptide: YCDGHLDEYMAKCL
B3: Phage-96 (peptide)
peptide: YCEGHLPLYMWKCL
B4: Phage-71 (peptide)
peptide: YCDGHLPEYQEKCL
B5: Phage-64 (peptide)
peptide: YCDGHLPEYLAKCL
B6: Phage-142 (peptide)
peptide: YCEGHSPQYMWKCL
B7: Phage-143 (peptide)
peptide: YCEGHAAEYMTKCL
B8: Phage-63 (peptide)
peptide: YCEGHAAEYMAKCL
B9: Phage-89 (peptide)
peptide: YCEGHSPEYMSKCL
B10: Phage-59 (peptide)
peptide: YCDGHLPQYMAQCL
B11: Phage-62 (peptide)
peptide: YCEGHLPEYMWKCL
B12: Phage-61 (peptide)
peptide: YCDGHAPEYMMKCL
B13: Phage-60 (peptide)
peptide: YCEGHLPQYMQKCL
B14: Phage-66 (peptide)
peptide: YCDGHLPEYMSKCM
B15: Phage-144 (peptide)
peptide: YCEGHLPQYMKKCL
B16: Phage-68 (peptide)
peptide: YCMGHAPEYMAKCL
B17: Phage-146 (peptide)
peptide: YCEGHAPEYMLKCL
B18: Phage-72 (peptide)
peptide: YCAGHLPQYMSKCL
B19: Phage-100 (peptide)
peptide: YCDGHLPIYMAKCL
B20: Phage-73 (peptide)
peptide: YCDGHLPIYMSQCL
B21: Phage-32 (peptide)
peptide: YCEGHSQENIWKCL
B22: Phage-36 (peptide)
peptide: YCEGHSQEYLWKCL

Experiments:
[1] = molecular target: Anti-CD28 Fab (SEQ ID NOs: 202, 203); experiment: phage binding ELISA on captured Fab; competitor CD28 antigen;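 as to Anti-CD28 Fab signal in the presence of CD28: wells pretreated with CD28 antigen in blocking buffer or buffer only, then clonal phage supernatants added briefly without washing, bound phage detected via horseradish-conjugated anti-M13 antibody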
Description: (§1) Clonal phage were harvested as crude supernatants and screened via standard ELISAs. […] Prior to the addition of clonal phage, wells were incubated with blocking buffer and CD28 antigen or blocking buffer alone. Without washing or aspirating, clonal phage supernatants were then added to the wells and incubated for a short time. Wells were then washed followed by detection of bound phage using a horse radish conjugated anti-M13 antibody.

[2] = molecular target: Anti-CD28 Fab (SEQ ID NOs: 202, 203); experiment: phage binding ELISA on captured Fab;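 also: clonal phage supernatants added briefly to wells pre-incubated with CD28 antigen or with blocking buffer only, then washed, bound phage read by ELISA using HRP-coupled anti-M13 antibody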
Description: as §1

Anti-CD28 Fab (SEQ ID NOs: 202, 203), sequence (VH, as listed by the source, chain 1 of 2): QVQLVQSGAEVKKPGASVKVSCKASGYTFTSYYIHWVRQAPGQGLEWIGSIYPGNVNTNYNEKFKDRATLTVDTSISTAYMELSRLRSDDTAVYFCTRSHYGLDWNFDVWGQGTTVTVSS
Anti-CD28 Fab (SEQ ID NOs: 202, 203), sequence (VL, as listed by the source, chain 2 of 2): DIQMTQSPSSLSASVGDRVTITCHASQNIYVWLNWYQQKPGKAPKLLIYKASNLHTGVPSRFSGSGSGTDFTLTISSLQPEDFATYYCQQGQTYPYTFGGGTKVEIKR

| Binder | Anti-CD28 Fab signal in the presence of CD28 [1] | Anti-CD28 Fab signal [2] |
| --- | --- | --- |
| B1 | 0.12 | 2.4 |
| B2 | 0.08 | 2.31 |
| B3 | 0.07 | 2.3 |
| B4 | 0.1 | 2.37 |
| B5 | 0.11 | 2.38 |
| B6 | 0.12 | 2.22 |
| B7 | 0.08 | 2.22 |
| B8 | 0.08 | 2.38 |
| B9 | 0.07 | 2.31 |
| B10 | 0.2 | 2.4 |
| B11 | 0.08 | 2.39 |
| B12 | 0.09 | 2.39 |
| B13 | 0.12 | 2.39 |
| B14 | 0.14 | 2.38 |
| B15 | 0.1 | 2.22 |
| B16 | 0.09 | 2.38 |
| B17 | 0.07 | 2.21 |
| B18 | 0.11 | 2.37 |
| B19 | 0.14 | 2.3 |
| B20 | 0.12 | 2.36 |
| B21 | 0.07 | 1.41 |
| B22 | 0.07 | 2.36 |
